The results in this text go back to paper PMC10002499.

In assay [1] the target is dysferlin canonical C2A domain, construct 3 (aa 19-134) (Rattus norvegicus). The experiment in a line: SPR; Biacore 3000, 25 °C; His6 fusion ligand amine-coupled on a CM5 chip (dysferlin C2 domain as ligand, partner as analyte, per Figure 2 'ligand:analyte'); analyte typically 0–320 nM, including reversal of ligand and analyte; 1:1 Langmuir model; Ca2+ level of the KD values of Table 1 not given. Background: SPR reads the build-up and loss of mass on a sensor chip optically.
dysferlin canonical C2A domain, construct 3 (aa 19-134) (Rattus norvegicus), sequence (Q9ESD7 other isoform, or with tags, fused parts or gaps): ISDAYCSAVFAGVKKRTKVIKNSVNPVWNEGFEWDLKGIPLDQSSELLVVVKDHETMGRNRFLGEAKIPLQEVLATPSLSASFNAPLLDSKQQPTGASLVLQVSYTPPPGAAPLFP

The target in assay [2] is dysferlin C2F domain (Rattus norvegicus). The description is as above.
dysferlin C2F domain (Rattus norvegicus), sequence (Q9ESD7 1805-1953): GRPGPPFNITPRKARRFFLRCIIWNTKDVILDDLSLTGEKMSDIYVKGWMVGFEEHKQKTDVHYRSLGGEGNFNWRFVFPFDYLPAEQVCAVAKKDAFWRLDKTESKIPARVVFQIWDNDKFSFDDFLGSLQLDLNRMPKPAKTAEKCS
Assay [3] concerns the target annexin A2 (amino terminus) construct (rat). The experiment in a line: SPR; 100 uM Ca2+. As to conditions: domain or fragment.
For assay [4] the target is unchanged. As to the kind of experiment: SPR; without Ca2+. As to conditions: domain or fragment.
The target is the same in assay [5]. The experiment in a line: SPR; 0 added Ca2+. As to conditions: domain or fragment.

Usually Kd stands for the equilibrium constant for the complex coming apart.

annexin A2 (amino terminus) construct (rat), sequence (Q07936 2-339): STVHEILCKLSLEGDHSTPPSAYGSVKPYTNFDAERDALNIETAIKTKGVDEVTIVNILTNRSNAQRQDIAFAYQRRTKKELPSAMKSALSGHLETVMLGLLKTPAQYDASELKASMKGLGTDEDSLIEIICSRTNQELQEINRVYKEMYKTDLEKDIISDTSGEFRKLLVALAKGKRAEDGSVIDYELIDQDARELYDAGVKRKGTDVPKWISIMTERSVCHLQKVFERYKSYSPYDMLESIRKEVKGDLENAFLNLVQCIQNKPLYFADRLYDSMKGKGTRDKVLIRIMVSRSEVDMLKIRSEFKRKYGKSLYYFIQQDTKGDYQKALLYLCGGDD
syntaxin-4 construct (domain or fragment), sequence (Q08850 whole entry, the tested form may be a part): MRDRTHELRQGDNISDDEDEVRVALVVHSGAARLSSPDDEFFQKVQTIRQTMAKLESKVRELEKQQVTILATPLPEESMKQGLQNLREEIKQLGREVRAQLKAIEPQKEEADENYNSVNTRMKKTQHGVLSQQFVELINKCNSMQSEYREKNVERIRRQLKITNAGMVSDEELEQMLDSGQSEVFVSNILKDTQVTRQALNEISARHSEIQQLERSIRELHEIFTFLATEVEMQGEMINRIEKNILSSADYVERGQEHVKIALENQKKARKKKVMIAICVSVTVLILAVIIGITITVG
caveolin-3 construct (domain or fragment), sequence (P51638 whole entry, the tested form may be a part): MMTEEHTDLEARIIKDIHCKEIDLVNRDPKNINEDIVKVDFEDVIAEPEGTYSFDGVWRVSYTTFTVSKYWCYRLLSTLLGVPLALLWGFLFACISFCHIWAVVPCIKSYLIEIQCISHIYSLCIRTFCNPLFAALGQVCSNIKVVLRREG
annexin A1 construct (domain or fragment), sequence (P07150 2-346): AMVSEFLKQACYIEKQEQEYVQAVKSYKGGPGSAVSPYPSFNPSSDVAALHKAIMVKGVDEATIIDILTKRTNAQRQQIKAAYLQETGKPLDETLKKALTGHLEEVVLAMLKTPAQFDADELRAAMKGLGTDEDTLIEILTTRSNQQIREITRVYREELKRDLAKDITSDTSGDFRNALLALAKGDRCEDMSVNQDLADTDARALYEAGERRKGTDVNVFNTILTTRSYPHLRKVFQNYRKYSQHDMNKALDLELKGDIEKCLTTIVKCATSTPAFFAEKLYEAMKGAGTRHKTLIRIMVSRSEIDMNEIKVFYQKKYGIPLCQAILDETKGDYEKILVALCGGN
calpain-3 construct (domain or fragment), sequence (P16259 whole entry, the tested form may be a part): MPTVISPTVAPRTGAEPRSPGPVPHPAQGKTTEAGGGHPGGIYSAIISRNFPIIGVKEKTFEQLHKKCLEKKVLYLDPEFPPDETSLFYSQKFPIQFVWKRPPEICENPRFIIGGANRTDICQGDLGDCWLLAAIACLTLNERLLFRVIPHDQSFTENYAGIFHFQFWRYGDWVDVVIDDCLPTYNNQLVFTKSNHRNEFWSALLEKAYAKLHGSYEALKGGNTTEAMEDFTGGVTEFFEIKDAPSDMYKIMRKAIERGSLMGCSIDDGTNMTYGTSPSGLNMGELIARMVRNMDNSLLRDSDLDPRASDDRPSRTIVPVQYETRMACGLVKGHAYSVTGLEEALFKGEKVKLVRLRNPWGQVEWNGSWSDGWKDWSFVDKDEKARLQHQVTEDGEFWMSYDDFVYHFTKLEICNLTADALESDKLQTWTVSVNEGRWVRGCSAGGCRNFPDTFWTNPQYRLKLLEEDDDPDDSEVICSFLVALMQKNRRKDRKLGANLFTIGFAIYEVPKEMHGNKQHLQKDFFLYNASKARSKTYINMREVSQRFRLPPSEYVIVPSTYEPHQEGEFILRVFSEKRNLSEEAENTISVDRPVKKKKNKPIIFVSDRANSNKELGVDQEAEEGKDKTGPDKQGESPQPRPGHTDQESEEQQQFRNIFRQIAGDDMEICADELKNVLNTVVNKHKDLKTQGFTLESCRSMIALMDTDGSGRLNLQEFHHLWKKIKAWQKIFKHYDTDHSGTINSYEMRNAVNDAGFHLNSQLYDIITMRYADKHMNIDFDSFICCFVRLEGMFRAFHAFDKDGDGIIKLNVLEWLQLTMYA
mitsugumin-53 construct (domain or fragment), sequence (A0JPQ4 whole entry, the tested form may be a part): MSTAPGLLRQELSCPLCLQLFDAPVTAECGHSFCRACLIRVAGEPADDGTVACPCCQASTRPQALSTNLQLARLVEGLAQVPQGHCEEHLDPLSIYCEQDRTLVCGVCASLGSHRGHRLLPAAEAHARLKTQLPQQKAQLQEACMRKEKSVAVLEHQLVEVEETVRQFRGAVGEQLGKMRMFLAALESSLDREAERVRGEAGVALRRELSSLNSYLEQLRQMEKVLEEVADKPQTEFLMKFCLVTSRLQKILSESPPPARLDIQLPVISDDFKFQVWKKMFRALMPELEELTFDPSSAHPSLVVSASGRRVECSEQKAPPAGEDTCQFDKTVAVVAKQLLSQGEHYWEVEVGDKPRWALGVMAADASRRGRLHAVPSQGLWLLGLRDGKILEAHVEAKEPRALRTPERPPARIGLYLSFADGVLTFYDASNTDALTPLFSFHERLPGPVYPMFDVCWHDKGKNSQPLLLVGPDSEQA

On to “AHNAK1 construct, the final 500 amino acids (domain or fragment)”, for which, in assay [1], the Kd is 380 nM.
Take “affixin (beta-parvin) construct (domain or fragment)”: the Kd is 400 nM in assay [2] and 41000 nM in assay [1].
As to “annexin A1 construct (domain or fragment)”, the Kd in assay [2] was found to be 330 nM; in assay [1], 25 nM.
For the substance “calpain-3 construct (domain or fragment)”, the figures for the Kd in assay [2] and in assay [1] were 2.2 nM and 1200 nM, respectively.
The matching figures for “caveolin-3 construct (domain or fragment)”: 110 nM and 33 nM.
As to “dysferlin canonical C2A domain, construct 1 (aa 1-152 plus 24 aa)”, the Kd in assay [3] amounted to 23.6 nM; in assay [4] it was 101 nM.
With “dysferlin canonical C2A domain, construct 3 (aa 19-134)”, the Kd in assay [5] is 190 nM.
Regarding “mitsugumin-53 construct (domain or fragment)”, in assay [1], the Kd came to 470 nM.
On to “syntaxin-4 construct (domain or fragment)”, for which the dissociation constant (Kd) in assay [2] amounted to 130 nM; in assay [1], 4400 nM.
